B1: BsMenD (MenD, SEPHCHC synthase, EC 2.2.1.9) (Bacillus subtilis subsp. subtilis str. 168; R32A) (protein)
chain: MTVNPITHYIGSFIDEFALSGITDAVVCPGSASTPLAVLCAAHPDISVHVQIDERSAGFFALGLAKAKQRPVLLICTSGTAAANFYPAVVEAHYSRVPIIVLTADRPHELREVGAPQAINQHFLFGNFVKFFTDSALPEESPQMLRYIRTLASRAAGEAQKRPMGPVHVNVPLREPLMPDLSDEPFGRMRTGRHVSVKTGTQSVDRESLSDVAEMLAEAEKGMIVCGELHSDADKENIIALSKALQYPILADPLSNLRNGVHDKSTVIDAYDSFLKDDELKRKLRPDVVIRFGPMPVSKPVFLWLKDDPTIQQIVIDEDGGWRDPTQASAHMIHCNASVFAEEIMAGLTAATRSSEWLEKWQFVNGRFREHLQTISSEDVSFEGNLYRILQHLVPENSSLFVGNSMPIRDVDTFFEKQDRPFRIYSNRGANGIDGVVSSAMGVCEGTKAPVTLVIGDLSFYHDLNGLLAAKKLGIPLTVILVNNDGGGIFSFLPQASEKTHFEDLFGTPTGLDFKHAAALYGGTYSCPASWDEFKTAYAPQADKPGLHLIEIKTDRQSRVQLHRDMLNEAVREVKKQWEL
notes: full length (Thr2-Leu580 seen in crystal); N-terminal hexa-His tag with TEV site kept (24 extra residues); E. coli BL21(DE3); dimer peak used (tetramer in crystal); active site formed by two subunits
B2: BsMenD (MenD, SEPHCHC synthase, EC 2.2.1.9) (Bacillus subtilis subsp. subtilis str. 168; L493A) (protein)
chain: MTVNPITHYIGSFIDEFALSGITDAVVCPGSRSTPLAVLCAAHPDISVHVQIDERSAGFFALGLAKAKQRPVLLICTSGTAAANFYPAVVEAHYSRVPIIVLTADRPHELREVGAPQAINQHFLFGNFVKFFTDSALPEESPQMLRYIRTLASRAAGEAQKRPMGPVHVNVPLREPLMPDLSDEPFGRMRTGRHVSVKTGTQSVDRESLSDVAEMLAEAEKGMIVCGELHSDADKENIIALSKALQYPILADPLSNLRNGVHDKSTVIDAYDSFLKDDELKRKLRPDVVIRFGPMPVSKPVFLWLKDDPTIQQIVIDEDGGWRDPTQASAHMIHCNASVFAEEIMAGLTAATRSSEWLEKWQFVNGRFREHLQTISSEDVSFEGNLYRILQHLVPENSSLFVGNSMPIRDVDTFFEKQDRPFRIYSNRGANGIDGVVSSAMGVCEGTKAPVTLVIGDLSFYHDLNGLLAAKKLGIPLTVILVNNDGGGIFSFAPQASEKTHFEDLFGTPTGLDFKHAAALYGGTYSCPASWDEFKTAYAPQADKPGLHLIEIKTDRQSRVQLHRDMLNEAVREVKKQWEL
notes: as for B1
B3: BsMenD (MenD, SEPHCHC synthase, EC 2.2.1.9) (Bacillus subtilis subsp. subtilis str. 168; F490A) (protein)
chain: MTVNPITHYIGSFIDEFALSGITDAVVCPGSRSTPLAVLCAAHPDISVHVQIDERSAGFFALGLAKAKQRPVLLICTSGTAAANFYPAVVEAHYSRVPIIVLTADRPHELREVGAPQAINQHFLFGNFVKFFTDSALPEESPQMLRYIRTLASRAAGEAQKRPMGPVHVNVPLREPLMPDLSDEPFGRMRTGRHVSVKTGTQSVDRESLSDVAEMLAEAEKGMIVCGELHSDADKENIIALSKALQYPILADPLSNLRNGVHDKSTVIDAYDSFLKDDELKRKLRPDVVIRFGPMPVSKPVFLWLKDDPTIQQIVIDEDGGWRDPTQASAHMIHCNASVFAEEIMAGLTAATRSSEWLEKWQFVNGRFREHLQTISSEDVSFEGNLYRILQHLVPENSSLFVGNSMPIRDVDTFFEKQDRPFRIYSNRGANGIDGVVSSAMGVCEGTKAPVTLVIGDLSFYHDLNGLLAAKKLGIPLTVILVNNDGGGIASFLPQASEKTHFEDLFGTPTGLDFKHAAALYGGTYSCPASWDEFKTAYAPQADKPGLHLIEIKTDRQSRVQLHRDMLNEAVREVKKQWEL
notes: as for B1
B4: BsMenD (MenD, SEPHCHC synthase, EC 2.2.1.9) (Bacillus subtilis subsp. subtilis str. 168; R106A) (protein)
chain: MTVNPITHYIGSFIDEFALSGITDAVVCPGSRSTPLAVLCAAHPDISVHVQIDERSAGFFALGLAKAKQRPVLLICTSGTAAANFYPAVVEAHYSRVPIIVLTADAPHELREVGAPQAINQHFLFGNFVKFFTDSALPEESPQMLRYIRTLASRAAGEAQKRPMGPVHVNVPLREPLMPDLSDEPFGRMRTGRHVSVKTGTQSVDRESLSDVAEMLAEAEKGMIVCGELHSDADKENIIALSKALQYPILADPLSNLRNGVHDKSTVIDAYDSFLKDDELKRKLRPDVVIRFGPMPVSKPVFLWLKDDPTIQQIVIDEDGGWRDPTQASAHMIHCNASVFAEEIMAGLTAATRSSEWLEKWQFVNGRFREHLQTISSEDVSFEGNLYRILQHLVPENSSLFVGNSMPIRDVDTFFEKQDRPFRIYSNRGANGIDGVVSSAMGVCEGTKAPVTLVIGDLSFYHDLNGLLAAKKLGIPLTVILVNNDGGGIFSFLPQASEKTHFEDLFGTPTGLDFKHAAALYGGTYSCPASWDEFKTAYAPQADKPGLHLIEIKTDRQSRVQLHRDMLNEAVREVKKQWEL
notes: as for B1
B5: BsMenD (MenD, SEPHCHC synthase, EC 2.2.1.9) (Bacillus subtilis subsp. subtilis str. 168; K299A) (protein)
chain: MTVNPITHYIGSFIDEFALSGITDAVVCPGSRSTPLAVLCAAHPDISVHVQIDERSAGFFALGLAKAKQRPVLLICTSGTAAANFYPAVVEAHYSRVPIIVLTADRPHELREVGAPQAINQHFLFGNFVKFFTDSALPEESPQMLRYIRTLASRAAGEAQKRPMGPVHVNVPLREPLMPDLSDEPFGRMRTGRHVSVKTGTQSVDRESLSDVAEMLAEAEKGMIVCGELHSDADKENIIALSKALQYPILADPLSNLRNGVHDKSTVIDAYDSFLKDDELKRKLRPDVVIRFGPMPVSAPVFLWLKDDPTIQQIVIDEDGGWRDPTQASAHMIHCNASVFAEEIMAGLTAATRSSEWLEKWQFVNGRFREHLQTISSEDVSFEGNLYRILQHLVPENSSLFVGNSMPIRDVDTFFEKQDRPFRIYSNRGANGIDGVVSSAMGVCEGTKAPVTLVIGDLSFYHDLNGLLAAKKLGIPLTVILVNNDGGGIFSFLPQASEKTHFEDLFGTPTGLDFKHAAALYGGTYSCPASWDEFKTAYAPQADKPGLHLIEIKTDRQSRVQLHRDMLNEAVREVKKQWEL
notes: as for B1

Assays:
[1] = substrate: C=C(O[C@H]1C=CC=C(C(=O)O)[C@@H]1O)C(=O)O; test: purified protein; format: biochemical, Bacillus subtilis; details: 50 mM Tris-HCl pH 7.8, 20 mM NaCl, 5 mM MgSO4, 23 °C, co-substrate α-ketoglutarate
[2] = substrate: O=C(O)CCC(=O)C(=O)O; test: purified protein; format: biochemical, Bacillus subtilis; details: 50 mM Tris-HCl pH 7.8, 20 mM NaCl, 5 mM MgSO4, 23 °C, co-substrate isochorismate

Protein | Km [1] [µM] | kcat [1] [s⁻¹] | kcat/Km [1] [M⁻¹ s⁻¹] | Km [2] [µM] | kcat [2] [s⁻¹] | kcat/Km [2] [M⁻¹ s⁻¹]
B1 | 49 ± 7 | 0.183 ± 0.0167 | 3670 ± 167 |  |  | 
B2 | 39 ± 1 | 0.317 ± 0.0167 | 8170 ± 500 |  |  | 
B3 |  |  |  | 274 ± 12 | 0.0183 ± 0.00167 | 65 ± 3.33
B4 | 41 ± 4 | 0.0117 ± 0.00333 | 300 ± 167 |  |  | 
B5 | 8.4 ± 1.2 | 0.417 ± 0.0333 | 50000 ± 5000 |  |  | 
